This note sets out measurements from publication PMC11046300 (The Journal of Biological Chemistry, 2024).

To fix the notation:
B3: His-TEAD4-YBD (domain or fragment, human, UniProt Q15561 217-434, looked up)
chain: RSVASSKLWMLEFSAFLEQQQDPDTYNKHLFVHIGQSSPSYSDPYLEAVDIRQIYDKFPEKKGGLKDLFERGPSNAFFLVKFWADLNTNIEDEGSSFYGVSSQYESPENMIITCSTKVCSFGKQVVEKVETEYARYENGHYSYRIHRSPLCEYMINFIHKLKHLPEKYMMNSVLENFTILQVVTNRDTQETLLCIAYVFEVSASEHGAQHHIYRLVKE

Test in all cases: pull-down
The test “His-TEAD4-YBD” deals with B3.
For test [1], the target named is T1, GST-NF2 FERM domain (1-341 aa) (human, UniProt P35240 1-341).
T1 sequence (looked up): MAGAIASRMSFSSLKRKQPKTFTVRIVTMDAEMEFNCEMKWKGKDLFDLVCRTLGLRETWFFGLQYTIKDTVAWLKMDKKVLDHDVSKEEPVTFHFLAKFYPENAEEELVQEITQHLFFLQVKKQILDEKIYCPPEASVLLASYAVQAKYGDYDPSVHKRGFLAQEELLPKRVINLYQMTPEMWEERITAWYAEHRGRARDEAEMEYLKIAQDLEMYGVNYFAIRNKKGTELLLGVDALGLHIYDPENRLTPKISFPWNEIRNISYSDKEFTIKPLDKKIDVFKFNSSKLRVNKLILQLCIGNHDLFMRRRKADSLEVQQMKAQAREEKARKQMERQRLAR

The target in test [2] is T2, GST-NF2 C-terminal half (342-595 aa) (human, UniProt P35240 342-595).
T2 sequence (looked up): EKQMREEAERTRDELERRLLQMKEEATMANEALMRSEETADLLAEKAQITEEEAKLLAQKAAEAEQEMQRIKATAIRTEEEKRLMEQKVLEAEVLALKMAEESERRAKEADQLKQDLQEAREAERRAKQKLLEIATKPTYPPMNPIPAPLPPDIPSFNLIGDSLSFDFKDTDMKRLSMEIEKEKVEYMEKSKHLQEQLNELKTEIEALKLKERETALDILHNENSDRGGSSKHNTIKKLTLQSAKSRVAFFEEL

Test [3] addresses T3, GST-tagged full-length NF2 (human, UniProt P35240 1-595).
T3 sequence (looked up): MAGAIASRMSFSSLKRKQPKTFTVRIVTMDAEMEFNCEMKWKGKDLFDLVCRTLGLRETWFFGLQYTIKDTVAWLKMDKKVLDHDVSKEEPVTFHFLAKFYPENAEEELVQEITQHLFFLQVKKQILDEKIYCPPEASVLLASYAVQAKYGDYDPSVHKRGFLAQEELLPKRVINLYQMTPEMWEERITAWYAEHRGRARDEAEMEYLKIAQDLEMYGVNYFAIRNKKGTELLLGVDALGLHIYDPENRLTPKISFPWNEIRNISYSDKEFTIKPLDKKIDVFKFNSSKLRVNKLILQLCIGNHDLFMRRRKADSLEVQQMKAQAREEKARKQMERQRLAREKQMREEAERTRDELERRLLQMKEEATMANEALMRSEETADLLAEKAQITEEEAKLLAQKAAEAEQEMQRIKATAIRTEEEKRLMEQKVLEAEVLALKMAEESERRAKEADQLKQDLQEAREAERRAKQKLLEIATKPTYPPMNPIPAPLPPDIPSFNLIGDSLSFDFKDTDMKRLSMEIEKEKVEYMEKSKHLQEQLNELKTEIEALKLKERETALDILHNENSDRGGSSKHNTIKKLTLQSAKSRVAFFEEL

A further test has as its target T4, MBP-NF2 (18-595) (human, UniProt P35240 18-595).
T4 sequence (looked up): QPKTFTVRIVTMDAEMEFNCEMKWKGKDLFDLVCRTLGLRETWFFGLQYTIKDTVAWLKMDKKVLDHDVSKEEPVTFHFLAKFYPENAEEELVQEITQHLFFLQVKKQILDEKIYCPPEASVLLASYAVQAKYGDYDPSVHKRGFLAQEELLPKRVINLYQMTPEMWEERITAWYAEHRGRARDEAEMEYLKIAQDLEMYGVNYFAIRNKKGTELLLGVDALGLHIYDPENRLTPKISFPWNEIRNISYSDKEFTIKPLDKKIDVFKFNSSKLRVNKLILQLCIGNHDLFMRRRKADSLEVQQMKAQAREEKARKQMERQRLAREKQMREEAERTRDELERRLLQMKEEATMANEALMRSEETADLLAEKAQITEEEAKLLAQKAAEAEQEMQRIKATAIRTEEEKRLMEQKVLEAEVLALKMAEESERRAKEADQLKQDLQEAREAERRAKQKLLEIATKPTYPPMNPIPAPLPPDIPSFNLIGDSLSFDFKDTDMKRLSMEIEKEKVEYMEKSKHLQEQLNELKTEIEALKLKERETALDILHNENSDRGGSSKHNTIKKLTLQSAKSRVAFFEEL

Another test has as its target T5, MBP-NF2 A585W (human, UniProt P35240 18-595, A585W).
T5 sequence (looked up): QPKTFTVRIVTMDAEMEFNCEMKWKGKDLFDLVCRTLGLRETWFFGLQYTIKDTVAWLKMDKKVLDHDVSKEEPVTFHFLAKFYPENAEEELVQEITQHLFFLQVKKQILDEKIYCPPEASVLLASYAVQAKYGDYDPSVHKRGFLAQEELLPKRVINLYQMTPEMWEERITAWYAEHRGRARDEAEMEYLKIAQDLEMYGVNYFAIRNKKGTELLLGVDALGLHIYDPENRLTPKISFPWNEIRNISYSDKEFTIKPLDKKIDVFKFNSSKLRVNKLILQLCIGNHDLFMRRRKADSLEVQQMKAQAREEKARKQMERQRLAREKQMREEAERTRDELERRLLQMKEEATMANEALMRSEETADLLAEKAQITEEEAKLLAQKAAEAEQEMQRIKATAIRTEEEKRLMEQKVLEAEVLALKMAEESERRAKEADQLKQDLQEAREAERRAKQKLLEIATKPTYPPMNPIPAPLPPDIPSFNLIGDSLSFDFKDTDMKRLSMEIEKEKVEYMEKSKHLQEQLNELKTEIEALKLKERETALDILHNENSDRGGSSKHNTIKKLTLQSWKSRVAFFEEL

B1: GST-NF2-507-595 (domain or fragment, human, UniProt P35240 507-595, looked up)
chain: FDFKDTDMKRLSMEIEKEKVEYMEKSKHLQEQLNELKTEIEALKLKERETALDILHNENSDRGGSSKHNTIKKLTLQSAKSRVAFFEEL
As to B1, the binding result with His-TEAD4-YBD is reported as “binds”.

B2: SUMO-His-tagged TEAD4 YBD domain (217-434) (domain or fragment, human, UniProt Q15561 217-434, looked up)
chain: RSVASSKLWMLEFSAFLEQQQDPDTYNKHLFVHIGQSSPSYSDPYLEAVDIRQIYDKFPEKKGGLKDLFERGPSNAFFLVKFWADLNTNIEDEGSSFYGVSSQYESPENMIITCSTKVCSFGKQVVEKVETEYARYENGHYSYRIHRSPLCEYMINFIHKLKHLPEKYMMNSVLENFTILQVVTNRDTQETLLCIAYVFEVSASEHGAQHHIYRLVKE
As to B2, the binding result in test [1], in test [2] and in test [3] was “binds” throughout.

On to B3, for which the binding result (with MBP-NF2 (18-595); with MBP-NF2 A585W; in test [1]) was “binds” each time.
